B1: Four and a half LIM domains protein 2 (Homo sapiens), Q14192 (parent)
chain: MTERFDCHHCNESLFGKKYILREESPYCVVCFETLFANTCEECGKPIGCDCKDLSYKDRHWHEACFHCSQCRNSLVDKPFAAKEDQLLCTDCYSNEYSSKCQECKKTIMPGTRKMEYKGSSWHETCFICHRCQQPIGTKSFIPKDNQNFCVPCYEKQHAMQCVQCKKPITTGGVTYREQPWHKECFVCTACRKQLSGQRFTARDDFAYCLNCFCDLYAKKCAGCTNPISGLGGTKYISFEERQWHNDCFNCKKCSLSLVGRGFLTERDDILCPDCGKDI
partner: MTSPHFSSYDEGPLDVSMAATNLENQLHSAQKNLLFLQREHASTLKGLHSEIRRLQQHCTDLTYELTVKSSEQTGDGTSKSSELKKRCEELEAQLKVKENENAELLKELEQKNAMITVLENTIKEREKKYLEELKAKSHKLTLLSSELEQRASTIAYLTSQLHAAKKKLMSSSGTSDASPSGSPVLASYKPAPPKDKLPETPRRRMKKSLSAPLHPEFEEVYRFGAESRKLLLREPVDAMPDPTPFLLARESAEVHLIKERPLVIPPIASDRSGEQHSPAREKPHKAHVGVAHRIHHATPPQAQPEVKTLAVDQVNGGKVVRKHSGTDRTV
B2: Protein DBF4 homolog B (Homo sapiens), Q8NFT6 (parent)
chain: MSEPGKGDDCLELESSMAESRLRAPDLGVSRCLGKCQKNSPGARKHPFSGKSFYLDLPAGKNLQFLTGAIQQLGGVIEGFLSKEVSYIVSSRREVKAESSGKSHRGCPSPSPSEVRVETSAMVDPKGSHPRPSRKPVDSVPLSRGKELLQKAIRNQGSISGGGSGGSSSLLTNARSWGVRILHVDEMMMHVQQLSLASLCVKKQQPKKPEGTCPAAESRTRKVARLKAPFLKIEDESRKFRPFHHQFKSFPEISFLGPKDASPFEAPTTLGSMHHTRESKDGEPSPRSAAHTMPRRKKGYCECCQEAFEELHVHLQSAQHRSFALEAHLYAEVDRIIAQLSHSFADIPFQAGLPRWSGSPASDCDPLCPETLHPHQPSHPRAASPRIRKEDSCQASVTQGRAAGQQRWTESLDGVMGPPASHTCVSATTLLPALPKGSREQGCLCPCPASFTQSHLVTSLALLPGEWSPAEDMPLHPSQENSFAPADIPVKGPLLFPEARPWLMSARCWVRPFPFVTWGCLIPHDTTPLHEEVSPCPCLRLGYLYLLLTQSLWCRVRVPSLSTAGPIPRTSHPCTLAFPSYLNDHDLGHLCQAKPQGWNTPQPFLHCGFLAVDSG
B3: Centrosomal protein of 55 kDa (Homo sapiens), Q53EZ4 (parent)
chain: MSSRSTKDLIKSKWGSKPSNSKSETTLEKLKGEIAHLKTSVDEITSGKGKLTDKERHRLLEKIRVLEAEKEKNAYQLTEKDKEIQRLRDQLKARYSTTTLLEQLEETTREGERREQVLKALSEEKDVLKQQLSAATSRIAELESKTNTLRLSQTVAPNCFNSSINNIHEMEIQLKDALEKNQQWLVYDQQREVYVKGLLAKIFELEKKTETAAHSLPQQTKKPESEGYLQEEKQKCYNDLLASAKKDLEVERQTITQLSFELSEFRRKYEETQKEVHNLNQLLYSQRRADVQHLEDDRHKTEKIQKLREENDIARGKLEEEKKRSEELLSQVQFLYTSLLKQQEEQTRVALLEQQMQACTLDFENEKLDRQHVQHQLHVILKELRKARNQITQLESLKQLHEFAITEPLVTFQGETENREKVAASPKSPTAALNESLVECPKCNIQYPATEHRDLLVHVEYCSK
partner: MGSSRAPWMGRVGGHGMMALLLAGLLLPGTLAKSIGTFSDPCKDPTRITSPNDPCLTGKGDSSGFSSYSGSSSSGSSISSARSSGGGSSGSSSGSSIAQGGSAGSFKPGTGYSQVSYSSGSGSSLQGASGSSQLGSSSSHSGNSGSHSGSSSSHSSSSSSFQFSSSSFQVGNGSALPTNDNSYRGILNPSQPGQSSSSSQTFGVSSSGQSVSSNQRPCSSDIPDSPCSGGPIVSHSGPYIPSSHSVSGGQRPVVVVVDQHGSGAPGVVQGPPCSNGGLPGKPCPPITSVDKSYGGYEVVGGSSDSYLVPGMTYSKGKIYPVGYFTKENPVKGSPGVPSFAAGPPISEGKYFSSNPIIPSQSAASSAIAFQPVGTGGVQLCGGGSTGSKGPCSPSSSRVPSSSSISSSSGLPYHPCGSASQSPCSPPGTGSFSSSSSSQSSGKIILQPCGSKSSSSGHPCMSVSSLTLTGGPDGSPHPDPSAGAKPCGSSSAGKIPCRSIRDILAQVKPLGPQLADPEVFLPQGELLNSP
B4: Copper homeostasis protein cutC homolog (Homo sapiens), Q9NTM9 (parent)
chain: MKRQGASSERKRARIPSGKAGAANGFLMEVCVDSVESAVNAERGGADRIELCSGLSEGGTTPSMGVLQVVKQSVQIPVFVMIRPRGGDFLYSDREIEVMKADIRLAKLYGADGLVFGALTEDGHIDKELCMSLMAICRPLPVTFHRAFDMVHDPMAALETLLTLGFERVLTSGCDSSALEGLPLIKRLIEQAKGRIVVMPGGGITDRNLQRILEGSGATEFHCSARSTRDSGMKFRNSSVAMGASLSCSEYSLKVTDVTKVRTLNAIAKNILV
partner: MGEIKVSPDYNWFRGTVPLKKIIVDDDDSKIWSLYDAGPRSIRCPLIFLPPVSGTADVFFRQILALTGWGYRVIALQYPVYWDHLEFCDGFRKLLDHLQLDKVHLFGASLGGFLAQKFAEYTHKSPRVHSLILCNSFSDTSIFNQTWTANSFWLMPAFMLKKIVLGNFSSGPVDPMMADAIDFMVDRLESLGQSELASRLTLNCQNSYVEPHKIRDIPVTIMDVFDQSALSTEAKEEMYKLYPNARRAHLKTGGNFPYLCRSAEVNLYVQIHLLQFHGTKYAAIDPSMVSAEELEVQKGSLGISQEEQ
B5: Melanoma-associated antigen 4 (Homo sapiens), P43358 (parent)
chain: MSSEQKSQHCKPEEGVEAQEEALGLVGAQAPTTEEQEAAVSSSSPLVPGTLEEVPAAESAGPPQSPQGASALPTTISFTCWRQPNEGSSSQEEEGPSTSPDAESLFREALSNKVDELAHFLLRKYRAKELVTKAEMLERVIKNYKRCFPVIFGKASESLKMIFGIDVKEVDPASNTYTLVTCLGLSYDGLLGNNQIFPKTGLLIIVLGTIAMEGDSASEEEIWEELGVMGVYDGREHTVYGEPRKLLTQDWVQENYLEYRQVPGSNPARYEFLWGPRALAETSYVKVLEHVVRVNARVRIAYPSLREAALLEEEEGV
partner: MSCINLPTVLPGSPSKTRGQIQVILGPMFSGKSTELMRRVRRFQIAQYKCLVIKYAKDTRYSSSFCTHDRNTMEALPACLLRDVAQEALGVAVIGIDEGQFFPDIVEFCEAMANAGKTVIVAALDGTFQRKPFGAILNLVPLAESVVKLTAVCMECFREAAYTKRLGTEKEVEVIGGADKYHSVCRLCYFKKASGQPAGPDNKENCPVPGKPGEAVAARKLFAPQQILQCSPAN
B6: Phospholipid scramblase 4 (Homo sapiens), Q9NRQ2 (parent)
chain: MSGVVPTAPEQPAGEMENQTKPPDPRPDAPPEYNSHFLPGPPGTAVPPPTGYPGGLPMGYYSPQQPSTFPLYQPVGGIHPVRYQPGKYPMPNQSVPITWMPGPTPMANCPPGLEYLVQLDNIHVLQHFEPLEMMTCFETNNRYDIKNNSDQMVYIVTEDTDDFTRNAYRTLRPFVLRVTDCMGREIMTMQRPFRCTCCCFCCPSARQELEVQCPPGVTIGFVAEHWNLCRAVYSIQNEKKENVMRVRGPCSTYGCGSDSVFEVKSLDGISNIGSIIRKWNGLLSAMADADHFDIHFPLDLDVKMKAMIFGACFLIDFMYFERSPPQRSR
partner: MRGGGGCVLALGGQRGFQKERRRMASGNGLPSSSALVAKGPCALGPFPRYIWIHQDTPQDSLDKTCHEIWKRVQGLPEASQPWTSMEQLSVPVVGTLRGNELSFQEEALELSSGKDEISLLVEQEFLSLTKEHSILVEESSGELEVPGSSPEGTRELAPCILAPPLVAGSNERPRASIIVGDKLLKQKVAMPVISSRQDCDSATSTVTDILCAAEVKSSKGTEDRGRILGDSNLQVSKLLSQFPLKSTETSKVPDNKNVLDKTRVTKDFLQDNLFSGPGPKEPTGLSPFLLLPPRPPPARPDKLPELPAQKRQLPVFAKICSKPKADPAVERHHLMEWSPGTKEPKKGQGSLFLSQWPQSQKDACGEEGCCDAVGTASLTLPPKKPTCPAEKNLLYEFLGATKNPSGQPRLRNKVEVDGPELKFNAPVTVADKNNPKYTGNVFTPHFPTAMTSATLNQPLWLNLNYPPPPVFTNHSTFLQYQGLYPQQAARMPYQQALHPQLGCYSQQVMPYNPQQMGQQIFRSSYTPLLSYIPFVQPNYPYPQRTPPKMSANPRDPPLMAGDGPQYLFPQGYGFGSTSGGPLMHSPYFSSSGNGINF
B7: PDZ and LIM domain protein 1 (Homo sapiens), O00151 (parent)
chain: MTTQQIDLQGPGPWGFRLVGGKDFEQPLAISRVTPGSKAALANLCIGDVITAIDGENTSNMTHLEAQNRIKGCTDNLTLTVARSEHKVWSPLVTEEGKRHPYKMNLASEPQEVLHIGSAHNRSAMPFTASPASSTTARVITNQYNNPAGLYSSENISNFNNALESKTAASGVEANSRPLDHAQPPSSLVIDKESEVYKMLQEKQELNEPPKQSTSFLVLQEILESEEKGDPNKPSGFRSVKAPVTKVAASIGNAQKLPMCDKCGTGIVGVFVKLRDRHRHPECYVCTDCGTNLKQKGHFFVEDQIYCEKHARERVTPPEGYEVVTVFPK
B8: Notch homolog 2 N-terminal-like protein A (Homo sapiens), Q7Z3S9 (parent)
chain: MCVTYHNGTGYCKCPEGFLGEYCQHRDPCEKNRCQNGGTCVAQAMLGKATCRCASGFTGEDCQYSTSHPCFVSRPCLNGGTCHMLSRDTYECTCQVGFTGKECQWTDACLSHPCANGSTCTTVANQFSCKCLTGFTGQKCETDVNECDIPGHCQHGGTCLNLPGSYQCQCLQGFTGQYCDSLYVPCAPSPCVNGGTCRQTGDFTFECNCLPETVRRGTELWERDREVWNGKEHDEN
partner: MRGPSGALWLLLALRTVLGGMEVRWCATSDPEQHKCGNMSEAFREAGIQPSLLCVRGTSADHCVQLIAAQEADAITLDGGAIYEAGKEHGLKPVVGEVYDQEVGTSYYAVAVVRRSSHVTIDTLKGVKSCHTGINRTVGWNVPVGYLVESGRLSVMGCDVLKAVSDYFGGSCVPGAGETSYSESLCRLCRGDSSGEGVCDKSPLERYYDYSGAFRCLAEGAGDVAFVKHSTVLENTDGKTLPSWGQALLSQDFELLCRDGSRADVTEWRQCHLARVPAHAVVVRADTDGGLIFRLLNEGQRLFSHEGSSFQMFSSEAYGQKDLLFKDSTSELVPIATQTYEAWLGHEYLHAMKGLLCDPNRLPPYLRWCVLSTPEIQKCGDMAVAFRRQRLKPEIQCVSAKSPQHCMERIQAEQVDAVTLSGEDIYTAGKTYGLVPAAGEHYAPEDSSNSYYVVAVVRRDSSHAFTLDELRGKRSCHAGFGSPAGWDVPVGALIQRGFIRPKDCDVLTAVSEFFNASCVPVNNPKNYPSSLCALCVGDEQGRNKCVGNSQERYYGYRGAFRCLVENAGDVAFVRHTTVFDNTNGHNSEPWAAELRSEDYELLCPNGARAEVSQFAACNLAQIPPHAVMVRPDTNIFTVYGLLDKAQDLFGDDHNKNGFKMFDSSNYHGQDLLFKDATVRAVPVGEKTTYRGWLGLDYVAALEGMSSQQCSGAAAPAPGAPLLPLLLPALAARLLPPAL

Variants of: B1
Conditions: with ccd92_human CCDC92, Q53HC0

Variant | effect of a mutation on the interaction
N95K | with no effect
A37S | with no effect

Variants of: B2
Conditions: with tri23_human TRIM23, P36406
Sequence of tri23_human TRIM23, P36406 (P36406 whole entry): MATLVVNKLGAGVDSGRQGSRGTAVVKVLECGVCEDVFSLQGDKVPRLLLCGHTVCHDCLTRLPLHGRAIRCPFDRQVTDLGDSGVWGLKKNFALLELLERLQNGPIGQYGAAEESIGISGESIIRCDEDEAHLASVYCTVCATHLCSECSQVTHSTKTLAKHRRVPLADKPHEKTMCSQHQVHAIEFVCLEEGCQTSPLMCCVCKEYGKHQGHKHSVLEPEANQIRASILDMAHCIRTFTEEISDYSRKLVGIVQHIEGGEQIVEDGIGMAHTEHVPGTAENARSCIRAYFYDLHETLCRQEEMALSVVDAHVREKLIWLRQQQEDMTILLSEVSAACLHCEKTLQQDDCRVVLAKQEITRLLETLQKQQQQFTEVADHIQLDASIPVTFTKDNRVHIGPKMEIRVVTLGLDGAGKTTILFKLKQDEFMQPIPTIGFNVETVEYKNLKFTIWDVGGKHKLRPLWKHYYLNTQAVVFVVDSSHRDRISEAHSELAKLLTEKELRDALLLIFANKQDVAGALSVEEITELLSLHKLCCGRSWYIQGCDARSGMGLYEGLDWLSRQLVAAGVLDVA

Variant | effect of a mutation on the interaction
L199S | disrupting interaction strength

Variants of: B3
Conditions: with cdsn_human CDSN

Variant | effect of a mutation on the interaction
C236R | with no effect
A244P | with no effect
R348K | with no effect
H57Q | with no effect

Variants of: B4
Conditions: with spg21_human SPG21, Q9NZD8

Variant | effect of a mutation on the interaction
P77L | disrupting interaction strength

Variants of: B5
Conditions: with kith_human TK1, P04183

Variant | effect of a mutation on the interaction
S41F | with no effect

Variants of: B6
Conditions: with ca094_human C1orf94, Q6P1W5

Variant | effect of a mutation on the interaction
I155V | with no effect

Variants of: B7
Conditions: with gfap_human GFAP

Variant | effect of a mutation on the interaction
N175S | with no effect

Variants of: B8
Conditions: with trfm_human MELTF

Variant | effect of a mutation on the interaction
R74Q | with no effect
